Literature values, collected in publication PMC3708895.

Target: T4 capsid (gp23) (Escherichia virus T4) (UniProt P04535)
UniProt P04535, sequence (P04535 66-521): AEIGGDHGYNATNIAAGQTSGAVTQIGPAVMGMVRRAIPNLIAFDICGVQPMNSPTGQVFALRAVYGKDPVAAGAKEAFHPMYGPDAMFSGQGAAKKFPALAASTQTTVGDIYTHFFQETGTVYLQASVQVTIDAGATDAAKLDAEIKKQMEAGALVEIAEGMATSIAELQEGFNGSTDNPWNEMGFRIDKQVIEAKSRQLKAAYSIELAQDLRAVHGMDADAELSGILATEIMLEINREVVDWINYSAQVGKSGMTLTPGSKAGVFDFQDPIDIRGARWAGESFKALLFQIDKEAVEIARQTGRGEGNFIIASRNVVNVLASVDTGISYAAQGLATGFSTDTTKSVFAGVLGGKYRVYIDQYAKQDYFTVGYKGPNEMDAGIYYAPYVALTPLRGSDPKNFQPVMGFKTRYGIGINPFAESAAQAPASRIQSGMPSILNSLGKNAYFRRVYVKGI

## Soc (from UniProt P03715)
  Kd: 75 nM
